{
  "source": "patent US11407822B2",
  "about": "“Treatment of fibrodysplasia ossificans progressiva” (REGENERON PHARMACEUTICALS, INC., priority 2014, dated 2022)",
  "origin": "cited, not measured here",
  "key": {"[1]": {"biological_target": "T1, Activin A binding to ACVR2A or ACVR2B (Homo sapiens, UniProt P08476)", "T1 sequence (P08476 311-426)": "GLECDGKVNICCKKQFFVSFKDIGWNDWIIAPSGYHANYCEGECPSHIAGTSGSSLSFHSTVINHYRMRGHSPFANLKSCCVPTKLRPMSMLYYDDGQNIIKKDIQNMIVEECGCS", "settings": "as described for the antibody in US2015/0037339 or U.S. Pat. No. 8,309,082"}, "[2]": {"tested_on": "Activin A mediated signaling through ACVR2A and/or ACVR2B", "settings": "as described for the antibody in US2015/0037339 or U.S. Pat. No. 8,309,082"}},
  "data": [
    {"molecule": "H4H10430P: Antibody against Activin A designated H4H10430P in US2015037339; heavy and light chain variable regions present SEQ ID NOs:9 and 13 (antibody, V domains shown) VH: EVQLVESGGGLVQPGRSLRLSCKASGFAFDDFAMHWVRQAPGKGLEWVSGIVWNSGDIGYADSVKGRFTISRDNAKNSLYLQLNSLRTEDTALYFCVKDMVRGLMGFNYYGMDVWGQGTTVTVSS VL: EIVLTQSPATLSLSPGERATLSCRASQTISTYLVWYRQRPGQAPSLLIYDASNRATDIPARFSGSGSGTDFTLTISSLEPEDFAVYYCQQRSNWPITFGQGTRLEIK", "values": [
      {"measurement": "inhibition of Activin A binding to ACVR2A and/or ACVR2B", "setting": "[1]", "result": "inhibits binding of Activin A to ACVRV2A and/or ACVR2B"},
      {"measurement": "inhibition of Activin A signal transduction through ACVR2A and/or ACVR2B", "setting": "[2]", "result": "inhibits signal transduction through one or both of these receptors"}
    ]}
  ]
}
